The labels stand for the following.
B1: Fanconi anemia group J protein (Homo sapiens), Q9BX63 (parent)
chain: MSSMWSEYTIGGVKIYFPYKAYPSQLAMMNSILRGLNSKQHCLLESPTGSGKSLALLCSALAWQQSLSGKPADEGVSEKAEVQLSCCCACHSKDFTNNDMNQGTSRHFNYPSTPPSERNGTSSTCQDSPEKTTLAAKLSAKKQASIYRDENDDFQVEKKRIRPLETTQQIRKRHCFGTEVHNLDAKVDSGKTVKLNSPLEKINSFSPQKPPGHCSRCCCSTKQGNSQESSNTIKKDHTGKSKIPKIYFGTRTHKQIAQITRELRRTAYSGVPMTILSSRDHTCVHPEVVGNFNRNEKCMELLDGKNGKSCYFYHGVHKISDQHTLQTFQGMCKAWDIEELVSLGKKLKACPYYTARELIQDADIIFCPYNYLLDAQIRESMDLNLKEQVVILDEAHNIEDCARESASYSVTEVQLRFARDELDSMVNNNIRKKDHEPLRAVCCSLINWLEANAEYLVERDYESACKIWSGNEMLLTLHKMGITTATFPILQGHFSAVLQKEEKISPIYGKEEAREVPVISASTQIMLKGLFMVLDYLFRQNSRFADDYKIAIQQTYSWTNQIDISDKNGLLVLPKNKKRSRQKTAVHVLNFWCLNPAVAFSDINGKVQTIVLTSGTLSPMKSFSSELGVTFTIQLEANHIIKNSQVWVGTIGSGPKGRNLCATFQNTETFEFQDEVGALLLSVCQTVSQGILCFLPSYKLLEKLKERWLSTGLWHNLELVKTVIVEPQGGEKTNFDELLQVYYDAIKYKGEKDGALLVAVCRGKVSEGLDFSDDNARAVITIGIPFPNVKDLQVELKRQYNDHHSKLRGLLPGRQWYEIQAYRALNQALGRCIRHRNDWGALILVDDRFRNNPSRYISGLSKWVRQQIQHHSTFESALESLAEFSKKHQKVLNVSIKDRTNIQDNESTLEVTSLKYSTSPYLLEAASHLSPENFVEDEAKICVQELQCPKIITKNSPLPSSIISRKEKNDPVFLEEAGKAEKIVISRSTSPTFNKQTKRVSWSSFNSLGQYFTGKIPKATPELGSSENSASSPPRFKTEKMESKTVLPFTDKCESSNLTVNTSFGSCPQSETIISSLKIDATLTRKNHSEHPLCSEEALDPDIELSLVSEEDKQSTSNRDFETEAEDESIYFTPELYDPEDTDEEKNDLAETDRGNRLANNSDCILAKDLFEIRTIKEVDSAREVKAEDCIDTKLNGILHIEESKIDDIDGNVKTTWINELELGKTHEIEIKNFKPSPSKNKGMFPGFK

Variants of B1 are the subject of this assay. Particulars: with brca1_human BRCA1, P38398.
brca1_human BRCA1, P38398, sequence (P38398 whole entry, looked up): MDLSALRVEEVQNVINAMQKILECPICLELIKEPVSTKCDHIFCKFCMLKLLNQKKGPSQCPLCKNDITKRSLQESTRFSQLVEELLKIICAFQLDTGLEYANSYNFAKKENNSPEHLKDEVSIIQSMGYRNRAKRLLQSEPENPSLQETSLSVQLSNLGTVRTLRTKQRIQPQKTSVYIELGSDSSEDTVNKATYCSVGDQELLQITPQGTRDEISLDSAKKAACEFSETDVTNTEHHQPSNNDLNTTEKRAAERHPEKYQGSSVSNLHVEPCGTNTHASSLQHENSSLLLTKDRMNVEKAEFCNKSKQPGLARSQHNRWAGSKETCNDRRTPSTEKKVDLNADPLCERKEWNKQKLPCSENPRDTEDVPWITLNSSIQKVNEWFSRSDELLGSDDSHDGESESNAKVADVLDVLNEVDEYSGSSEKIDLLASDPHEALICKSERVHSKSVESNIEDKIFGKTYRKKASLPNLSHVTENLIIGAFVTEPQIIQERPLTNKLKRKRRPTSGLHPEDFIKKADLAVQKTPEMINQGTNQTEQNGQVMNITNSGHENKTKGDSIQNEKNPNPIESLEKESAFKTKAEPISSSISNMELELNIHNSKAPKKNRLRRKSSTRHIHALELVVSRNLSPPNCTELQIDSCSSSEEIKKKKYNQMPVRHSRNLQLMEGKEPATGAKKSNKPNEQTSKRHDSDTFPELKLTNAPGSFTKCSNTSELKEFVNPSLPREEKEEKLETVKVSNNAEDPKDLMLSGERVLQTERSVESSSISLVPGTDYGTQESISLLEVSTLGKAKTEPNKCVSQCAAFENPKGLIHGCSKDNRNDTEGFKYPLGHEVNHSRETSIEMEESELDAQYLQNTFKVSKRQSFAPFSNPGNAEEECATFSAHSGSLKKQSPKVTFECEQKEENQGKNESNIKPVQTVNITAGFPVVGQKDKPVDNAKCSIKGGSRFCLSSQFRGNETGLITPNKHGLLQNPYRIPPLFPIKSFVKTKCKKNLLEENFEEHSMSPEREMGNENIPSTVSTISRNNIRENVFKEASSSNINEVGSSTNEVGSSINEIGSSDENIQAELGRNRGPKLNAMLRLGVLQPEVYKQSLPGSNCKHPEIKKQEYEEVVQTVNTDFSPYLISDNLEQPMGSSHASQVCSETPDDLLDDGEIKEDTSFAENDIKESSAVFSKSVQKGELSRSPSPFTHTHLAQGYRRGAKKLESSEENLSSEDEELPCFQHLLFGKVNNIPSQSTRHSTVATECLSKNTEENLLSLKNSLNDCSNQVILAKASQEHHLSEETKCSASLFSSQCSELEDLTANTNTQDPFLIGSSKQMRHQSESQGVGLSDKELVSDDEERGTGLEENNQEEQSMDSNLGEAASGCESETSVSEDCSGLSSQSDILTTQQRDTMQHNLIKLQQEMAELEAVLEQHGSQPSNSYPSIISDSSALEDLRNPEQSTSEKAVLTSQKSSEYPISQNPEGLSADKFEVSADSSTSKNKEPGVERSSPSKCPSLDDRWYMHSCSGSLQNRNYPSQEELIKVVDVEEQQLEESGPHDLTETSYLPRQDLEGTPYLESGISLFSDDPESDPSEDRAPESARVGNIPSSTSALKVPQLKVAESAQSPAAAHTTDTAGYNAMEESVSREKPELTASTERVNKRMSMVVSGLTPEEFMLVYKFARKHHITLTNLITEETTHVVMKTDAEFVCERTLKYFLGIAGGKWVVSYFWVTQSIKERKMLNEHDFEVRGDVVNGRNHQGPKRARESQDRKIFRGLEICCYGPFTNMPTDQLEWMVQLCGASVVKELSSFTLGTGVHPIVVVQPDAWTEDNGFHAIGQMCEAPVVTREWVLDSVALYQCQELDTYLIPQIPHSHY
Consider K1249Q, for which the “effect of a mutation on the interaction” value is recorded as “with no effect”.

K1249R: the “effect of a mutation on the interaction” value is recorded as “with no effect”.

(Values after IntAct's records for PubMed 22792074.)
